The record followed here is patent publication US5702926.

The test system of this data set is Bca DNA polymerase. Conditions: unmodified dCTP; 39 units/µl with dCTPalphaS, 40-50 with dCTPalphaBH3; 4 mM Mg, 60 C.

Substance activated calf thymus DNA registered an activity of 152 units/µl.
